From patent US20260069689A1 (Regeneron, published 2026) come the findings set out here.

Assay [1] has as its target T1, SARS-COV-2 RBD extracellular domain expressed with a C-terminal mouse IgG2a Fc (SARS-CoV-2). Description: Biacore SPR, mAb captured on anti-hFc, 25 C. For orientation: Surface plasmon resonance follows binding to a sensor surface in real time, without labels.
Assay [2] deals with T1, SARS-COV-2 RBD extracellular domain …. Description: Biacore SPR, mAb captured on anti-hFc, 37 C.

As a reminder, the Kd is the free concentration of one partner at which half of the binding sites on the other are occupied at equilibrium, for simple one-to-one binding. Lower therefore signals higher affinity. A word on the koff: it is a measure of how fast the partners let go of each other. Higher therefore signals a short-lived complex. A word on the kon: it is the second-order rate constant of association. The t½ is the time needed for the level to fall by half in the phase considered.

B1: mAb15160 (antibody, V domains shown)
VH: EVQLVESGGGLVQPGGSLRLSCSASGFTFSRYAMYWVRQAPGKGLEYVSAISSDGGSTYDADSVKGRFTISRANSKNTLYLQMSSLRAEDTAVYYCVKGLRELLYYYYGMDVWGQGTTVTVSS
VL: DIQMTQSPSSLSASVGDRVTITCRAGQSISSFLNWYQQKPGKAPKLLIYAASSLQSGVPSRFSGSGSGTDFTLTISSLQPEDFATYYCQQSYITPFTFGPGTKVDIKR
In assay [1], B1 came in with a Kd of 40.6 pM, a koff of 1.05e-05 s⁻¹, a kon of 258000 M⁻¹ s⁻¹ and a t½ of 1100 min. In assay [2], this molecule gave a Kd of 181 pM, a dissociation rate constant (koff) of 7.9e-05 s⁻¹, a kon of 436000 M⁻¹ s⁻¹ and a t½ of 146 min.

B2: mAb14256 (antibody, V domains shown)
VH: QVQLQESGPGLVKPSETLSLTCTVSGGSISSHYWSWIRQPPGKGLEWIGYIYYSGSSNYNPSLKSRVTISVDTSKNQFSLKLNSVTAADTAVYYCARHYDILTGFDWFDPWGQGTLVTVSS
VL: QSVLTQPPSVSGAPGQRVTISCTGSSSNIGTHYDVHWYQQLPGTAPKLLIYGNSNRPSGVPDRFSGSKSGTSASLAITGLQAEDEADYYCQSFDNSLTAPYVFGTGTKVTVLG
In assay [1], B2 returned a Kd of 63.8 pM, a koff of 0.000181 s⁻¹, a kon of 2.84e+06 M⁻¹ s⁻¹ and a t½ of 63.7 min. In assay [2], this molecule returned an equilibrium dissociation constant (Kd) of 267 pM, a koff of 0.000473 s⁻¹, a kon of 1.78e+06 M⁻¹ s⁻¹ and a t½ of 24.4 min.

B3: mAb15156 (antibody, V domains shown)
VH: QLQLQESGPGLVKSSETLSLTCTVSASITGSTYYWGWIRQPPGKGLEWIGSIYYSGTTYYKASLKSRVTISVDTSKNQFSLKLTSVTVADTAVYYCVSHLLGNYHKYGMDVWGQGTTVTVSS
VL: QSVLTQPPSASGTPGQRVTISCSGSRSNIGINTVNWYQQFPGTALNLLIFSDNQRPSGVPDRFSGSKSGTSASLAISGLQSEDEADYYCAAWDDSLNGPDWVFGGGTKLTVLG
In assay [1], B3 registered a Kd of 36.9 pM, a koff of 5.22e-05 s⁻¹, a kon of 1.41e+06 M⁻¹ s⁻¹ and a t½ of 221 min. In assay [2], binding was characterised by a dissociation constant (Kd) of 630 pM, the koff is 0.000112 s⁻¹, the kon was determined as 178000 M⁻¹ s⁻¹ and the t½ was 103 min.

B4: mAb14280 (antibody, V domains shown)
VH: QVQLVQSGAEVKKPGASVRVSCKASGYTFTGNYIHWVRQAPGQGLEWMAWINPNSGGKNYAQKFQGRVTLTRDTSVNTAYMELSRLRSDDTAMYYCARDVNYNILTGPGGLWGQGTLVTVSS
VL: QSALTQPPSASGSPGQSVTISCTGTSSDVGGYNFVSWYQQHPGKAPKLMIYEVSKRPSGVPDRFSGSKSGNTASLTVSGLQAEDEADYYCSSYAGSNNFVFGTGTKVTVLG
Regarding B4, in assay [1], the affinity, expressed as Kd, was 123 pM; the koff was 0.00037 s⁻¹; the kon is 3.02e+06 M⁻¹ s⁻¹; the t½ worked out at 31.2 min. In assay [2], this molecule displayed a Kd of 264 pM, a koff of 0.000772 s⁻¹, a kon of 2.92e+06 M⁻¹ s⁻¹ and a t½ of 15 min.

B5: mAb15157 (antibody, V domains shown)
VH: EVQLVESGGALVQPGGSLRLSCAASGFPFTIYAMTWVRQAPGKGLEWVSVITGSGDSTYYADSVKGRFTISRDNSKNTLYLQMNSLRAEDTAVYYCVKTGEGFFYYYYGMDVWGQGTTVTVSS
VL: QSVLTQPPSVSAAPGQKVTISCSGSSSNIGNSYISWYQQLPGTAPKLLIYVNNKRPSGIPDRFSGSKSGTSATLGITGLQTGDEADYYCGTWDSSLSAGVFGSGTKVTVLG
In assay [1], B5 came in with a Kd of 187 pM, a koff of 6.67e-05 s⁻¹, a kon of 357000 M⁻¹ s⁻¹ and a t½ of 173 min. In assay [2], this molecule gave a Kd of 116 pM, a koff of 0.000107 s⁻¹, a kon of 922000 M⁻¹ s⁻¹ and a t½ of 108 min.

B6: mAb15159 (antibody, V domains shown)
VH: EVQLVESGGGLVQPGGSLRLSCAASGITVSSNYMTWVRQAPGKGLEWVSLIYSGGSTFYADSVRGRFTISRDNSKNTLYLQMNSLRAEDTAVYYCARDLVVYGMDVWGQGTTVTVSS
VL: DIQLTQSPSSLSASVGDRVTITCRASQGISSYLAWYQQKPGKAPKLLIYAASTLQSGVPSRFSGSGSGTDFTLTISSLQPEDFATYYCQHLNSDPHTFGQGTKLEIKR
With B6, in assay [1], binding was put at a Kd of 17.2 pM, the koff stood at 1.19e-05 s⁻¹, the on-rate constant (kon) turned out to be 691000 M⁻¹ s⁻¹ and the t½ came to 971 min. Moreover, in assay [2], the Kd was 135 pM, the koff came to 2.99e-05 s⁻¹, the kon came to 220000 M⁻¹ s⁻¹ and the t½ turned out to be 386 min.

B7: mAb14230 (antibody, V domains shown)
VH: EVQLVESGGGLIQPGRSLRLSCAASGFTFDDYAMHWVRQAPGKGLEWVSGISWNSVSIDYADSVKGRFTISRDNAKNSLYLQMTSLTVEDTALYYCAKAFGYETLTGSDYFAYWGPGTLVTVSS
VL: EIVLTQSPGTLSLSPGERATLSCRASQTVISTYLAWYQQKPGQSPRLLIYGASSRATGIPDRFSGSGSGTDFTLTISRLEPEDFAVYYCQQYGSSPQLTFGGGTKVEIKR
In assay [1], B7 displayed a Kd of 142 pM, a koff of 0.000286 s⁻¹, a kon of 2e+06 M⁻¹ s⁻¹ and a t½ of 40.5 min. Further, in assay [2], the Kd was found to be 268 pM, the koff was 0.00049 s⁻¹, the kon stood at 1.82e+06 M⁻¹ s⁻¹ and the t½ was found to be 23.6 min.

B8: mAb14285 (antibody, V domains shown)
VH: QVQLVQSGAEVKKPGASVKVSCKASGYTFTGYFIHWVRQAPGQGLEWMGWISPISGGTNYAQKFQGRVTVTRDTSITTAYMELSRLTSDDTAVYHCAREGGTWKGDFDYWGQGTLVTVSS
VL: QSALTQPASVSGSPGQSITISCTGTSSDVESYNLVSWYQQHPGKAPKLMIYEGSKRPSGVSNRFSGSKSGNTASLTISGLQAEDEADYYCSSYAGSSTWVFGGGTKLTVLG
In assay [1], B8 displayed a Kd of 86.8 pM, a koff of 0.000502 s⁻¹, a kon of 5.78e+06 M⁻¹ s⁻¹ and a t½ of 23 min. In addition, in assay [2], the Kd came out at 231 pM, the koff turned out to be 0.00103 s⁻¹, the kon is 4.45e+06 M⁻¹ s⁻¹ and the t½ was 11.2 min.

B9: mAb14292 (antibody, V domains shown)
VH: EVQLVESGGGLVQPGGSLRLSCVASGFAFSTYEMNWVRQAPGKGLEWVSYISSSGSTIYYADSVKGRLTISRDNVKNSLYLQMNSLRVEDTAIYYCARDAIRNNDILTDPATFDPWGQGTLVTVSS
VL: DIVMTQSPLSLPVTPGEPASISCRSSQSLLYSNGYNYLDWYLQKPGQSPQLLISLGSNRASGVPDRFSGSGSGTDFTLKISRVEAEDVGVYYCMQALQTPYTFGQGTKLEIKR
For the molecule B9, in assay [1], binding was characterised by a dissociation constant (Kd) of 33600 pM, the koff was 0.0351 s⁻¹, the kon worked out at 1.04e+06 M⁻¹ s⁻¹ and the t½ amounted to 0.3 min. Further, in assay [2], binding was put at a Kd of 34600 pM, the koff came out at 0.0644 s⁻¹, the kon was found to be 1.86e+06 M⁻¹ s⁻¹ and the t½ came out at 0.2 min.

B10: mAb14281 (antibody, V domains shown)
VH: QVQLVQSGADVKKPGASVKVSCKTSGYIFTGYYIHWVRQAPGQGLEWMGWINPNSGGTNSAQKFQGRVTMTRDTSISTVYMELSRLRSDDTAVYYCAKSNSFSVLDYNFDYWGQGTLVTVSS
VL: SSELTQDPAVSVALGQTVRITCQGDSLRSYYASWYQQKPGQAPVLVIYDKNNRPSGIPDRFSGSSSGNTASLTITGAQAEDEADYYCNSRDSSRNHLVVFGGGTKLTVLG
In assay [1], B10 showed a Kd of 146 pM, a koff of 0.000213 s⁻¹, a kon of 1.46e+06 M⁻¹ s⁻¹ and a t½ of 54.3 min. For the same molecule, in assay [2], binding was characterised by a dissociation constant (Kd) of 271 pM, the koff turned out to be 0.000365 s⁻¹, the kon was 1.34e+06 M⁻¹ s⁻¹ and the t½ came to 31.7 min.

B11: mAb14232 (antibody, V domains shown)
VH: QITLKESGPTLVKPTQTLTLTCTFSGFSLSASGVGVGWIRQPPGKALEWLALIYWDDDKRYSPSLKSRLTITKDTSKNQVVLTMTNMDPVDTATYYCAQHKVATIFDYWGQGTLVTVSS
VL: QSALTQPPSASGSPGQSVTISCTATSSDVGNYNYVSWYQQHPGKAPKLMIYEVTKRPSGVPDRFSGSKSGNTASLTVSGLQAEDEADYYCSSYAGSWGVFGGGTKLTVLG
In assay [1], B11 showed a dissociation constant Kd of 878 pM, a koff of 0.00173 s⁻¹, an on-rate (kon) of 1.97e+06 M⁻¹ s⁻¹ and a t½ of 6.7 min. Moreover, in assay [2], binding was characterised by a dissociation constant (Kd) of 893 pM, the koff came out at 0.00188 s⁻¹, the kon was 2.1e+06 M⁻¹ s⁻¹ and the t½ is 6.1 min.

B12: mAb15158 (antibody, V domains shown)
VH: EVQLVESGGGLVQPGGSLRLSCAASGFSFSSNWMSWVRQAPGKGLEWVGNINQDGSEKYYVDSVEGRFTISRDNAKKSLYLQMNSLRAEDTAVYYCARDLGVLWFGDFVDWGQGALVTVSS
VL: DIQMTQSPSSLSASVGDRVTITCRASQAISNSLAWYQQKPGKAPKLLLYAASTLESGVPSRFSGSGSGTDYTLTISSLQPEDFATYYCLQYYGSPRTFGQGTKVEIKR
On to B12, for which, in assay [1], the Kd is ≤ 22.1 pM, the koff is ≤ 1e-05 s⁻¹, the kon is 453000 M⁻¹ s⁻¹ and the t½ is 1160 min. In assay [2], this molecule displayed a Kd of 170 pM, a koff of 2.9e-05 s⁻¹, an on-rate constant (kon) of 171000 M⁻¹ s⁻¹ and a t½ of 398 min.

B13: mAb14282 (antibody, V domains shown)
VH: QVQLVQSGAEVKKPGASVKVSCKASGYIFTDHYMHWVRQAPGQGLEWMGWINPNSGATNYAQNFQGRVTMTRDTSIITVYMELSRLRSDDTAVYYCARDSSPYMIRYTMDVWGQGTTITVSS
VL: QSALTQPASVSGSPGQSITISCTGTSSDVGSYNLVSWYQQHPGKAPKLMIYELTKRPSGVSNRFSGSKSGNTASLTISGLQAEDEADYYCSSYRGSVTDVVFGGGTKLTVLG
For B13, in assay [1], binding was put at a Kd of 186 pM, the koff was 0.000403 s⁻¹, the kon is 2.17e+06 M⁻¹ s⁻¹ and the t½ worked out at 28.7 min. Further, in assay [2], binding was put at a Kd of 247 pM, the off-rate (koff) came out at 0.000546 s⁻¹, the kon was found to be 2.21e+06 M⁻¹ s⁻¹ and the t½ was 21.1 min.

B14: mAb14234 (antibody, V domains shown)
VH: QVQLVESGGGVVQPGRSLRLSCAASGFTFSSYGIHWVRQAPGKGLEWVAIIWYDGSEKYYADSVKGRFTISRDNSKNTLFLQMNSLEAEDTAVYYCARGPDLLTGYYNYFYYGMDVWGQGTTVTVSS
VL: QSVLTQPPSVSGAPGQRVTISCTGSSSNIGIGYDVHWYQQLPGTVPKLLIYGNTNRPSGVPDRFSGSKSGTSASLAITGLQAEDEADYYCQSYDSSLSSYVFGTGTKVTVLG
In assay [1], B14 came in with a Kd of 119 pM, a koff of 0.000121 s⁻¹, a kon of 1.02e+06 M⁻¹ s⁻¹ and a t½ of 95.2 min. In assay [2], this molecule showed a Kd of 410 pM, a koff of 0.000402 s⁻¹, a kon of 980000 M⁻¹ s⁻¹ and a t½ of 28.8 min.
